The target of series [1] is T1, BlaC (Mycobacterium tuberculosis, UniProt P9WKD3). In words: biochemical. Format: binding.
Series [2] concerns O=C(Cc1cccs1)N[C@@H]1C(=O)N2C(C(=O)O)=C(/C=C/c3ccc([N+](=O)[O-])cc3[N+](=O)[O-])CS[C@H]12. In words: purified protein. Particulars: pH 6.0.
Series [3] concerns the target T1, BlaC. Briefly: […] Å crystal structure. Format: binding.

T1 sequence (P9WKD3 43-307 limits assumed): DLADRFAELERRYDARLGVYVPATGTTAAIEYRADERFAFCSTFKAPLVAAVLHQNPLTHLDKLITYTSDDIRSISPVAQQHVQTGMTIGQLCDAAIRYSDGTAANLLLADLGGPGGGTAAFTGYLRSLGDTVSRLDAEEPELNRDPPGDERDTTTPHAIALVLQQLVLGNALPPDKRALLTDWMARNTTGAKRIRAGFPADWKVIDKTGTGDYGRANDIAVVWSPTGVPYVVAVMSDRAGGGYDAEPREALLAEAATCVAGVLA

A word on the Kd: it is the free concentration of one partner at which half of the binding sites on the other are occupied at equilibrium, for simple one-to-one binding. As to `O=P(O)(O)O` [phosphate], in series [1], the Kd worked out at 27 ± 11 mM. Broadly, the Km is the concentration of substrate that gives half-maximal velocity. The term kcat denotes the maximal rate divided by the concentration of active sites. As usually defined, the kcat/Km is the turnover number divided by the Michaelis constant. Consider BlaC (Mycobacterium tuberculosis H37Rv), for which, in series [2], the Km was 38 ± 7 µM, the kcat worked out at 69 ± 1 s⁻¹ and the kcat/Km came out at 1.8e+06 ± 300000 M⁻¹ s⁻¹.

On to `CC(=O)O` [acetate], for which, in series [3], the “2.1 Å crystal structure” value is “acetate occupies the carboxylate binding site and forms hydrogen bridges with residues Ser-130, Thr-235, and Thr-237”.
